Here are results for 16 molecules from patent US20260258115A1 (MAPP BIOPHARMACEUTICAL, published 2026).

Assay [1] concerns the target RSV F on RSV subtype A virus (RSV-A2) (Respiratory Syncytial Virus, subtype A, …, UniProt P03420 26-574). In words: cell-based or functional assay.
In assay [2] the target is RSV postfusion F (postF), F ΔFP trimer, subtype A (Respiratory Syncytial Virus, subtype A, UniProt P03420 26-513). In words: BLI, IgG on anti-human IgG sensors.
In assay [3] the target is RSV prefusion F (preF), DS-Cav1 stabilized trimer, subtype A (Respiratory Syncytial Virus, subtype A, UniProt P03420 26-513). Put plainly: BLI, IgG on anti-human IgG sensors, 100 nM antigen, apparent KD. On the technique in general: In BLI a coated tip is dipped into the sample, and binding shifts an interference pattern.
The next assay has as its target RSV F on RSV-A2 virus (Respiratory Syncytial Virus (RSV-A2), UniProt P03420 26-574). Put plainly: cell-based or functional assay.
The target in assay [4] is RSV prefusion F (preF), DS-Cav1 (Respiratory Syncytial Virus, UniProt P03420 26-513). Put plainly: BLI, IgG on anti-human IgG sensor.
In assay [5] the target is RSV postfusion F (postF), F ΔFP (Respiratory Syncytial Virus, UniProt P03420 26-513). In words: BLI, IgG on anti-human IgG sensor, 100 nM antigen, 1:1 fit.

B1: ADI-43641 (antibody, V domains shown)
VH: EVQLVESGGGLVKPGGSLRLSCAASGFTFSDYYMSWIRQAPGKGLEWVSYISSSSSYTNYADSVKGRFTISRDNAKNSLYLQMNSLRAEDTAVYYCARDFSGQWLVLGYGMDVWGQGTTVTVSS
VL: QSVVTQPPSVSGAPGQRVTISCTGSSSNIGAGYDVHWYQQLPGTAPKLLIYGNSNRPSGVPDRFSGSKSGTSASLAITGLQAEDEADYYCQSYDSSLSGPVFGGGTKLTVL
notes: also called Ab 946; Antibody Number 946
As for B1, the “Neutralization IC50 (RSV subtype A)” value in assay [1] was above 25 µg/mL. In addition, the binding result in assay [2] is “no binding (tested: 100 nM antigen)”. For the same molecule, the Kd in assay [3] worked out at 37.5 nM.

B2: ADI-43642 (antibody, V domains shown)
VH: EVQLLESGGGLVKPGGSLRLSCAASGFTFSSYSMNWVRQAPGKGLEWVSSISSSSSYIYYADSVKGRFTISRDNAKNSLYLQMNSLRAEDTAVYYCARDGADSSYYYYMDVWGKGTTVTVSS
VL: QAVVTQPPSVSGAPGQRVTISCTGSSSNIGAGYDVHWYQQLPGTAPKLLIYGNSNRPSGVPDRFSGSKSGTSASLAITGLQAEDEADYYCQSYDSSLSGSVFGGGTKLTVL
notes: also called Ab 947; Antibody Number 947
Take B2: the “Neutralization IC50 (RSV subtype A)” value in assay [1] was above 25 µg/mL. Moreover, the binding result in assay [2] is “no binding (tested: 100 nM antigen)”. Further, the Kd in assay [3] came out at 43.2 nM.

B3: ADI-41462 (antibody, V domains shown)
VH: QVQLQQWGAGLVKPSETLSLSCDVYGGSFSGYYWTWIRQPPGKGLEWIGEINHSGRTNYNPSLKNRVTISVDTSKKQFSLKLSSVTAADTAVYFCARAPYYDIVTDYNITTAYFYGMDVWGQGTTVTVSS
VL: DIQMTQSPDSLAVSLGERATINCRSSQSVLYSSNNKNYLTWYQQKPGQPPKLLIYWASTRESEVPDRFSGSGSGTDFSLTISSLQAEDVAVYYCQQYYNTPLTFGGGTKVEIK
On to B3, for which the “Neutralization IC50 (RSV subtype A)” value with RSV F on RSV-A2 virus is above 25 µg/mL. Moreover, the binding result in assay [4] was “no binding”. The Kd in assay [5] came out at 1.54 nM.

B4: ADI-41479 (antibody, V domains shown)
VH: QVQLVQSGAEVKKPGESLKISCKGSGYSFISYWIGWVRQMPGKGLEWMGIIYPADSDTRYSPSFQGQVTISVDKSISTAYLQWSSLKASDTGMYYCVRYGVGGTAPRYWGQGTTVTVSS
VL: NFMLTQPHSVSESPGKTVTISCTGSSGSIASNYVHWYQQRPGSAPTTVIYEDNQRPSGVPDRFSGSIDSSSNSASLTISGLKTEDEADYYCQSYDISNLWVFGGGTKLTVL
On to B4, for which the “Neutralization IC50 (RSV subtype A)” value in the assay with RSV F on RSV-A2 virus is 0.46 µg/mL. Moreover, the binding result in assay [4] is listed as “no binding”. This molecule showed a Kd in assay [5] of 33.1 nM.

B5: ADI-41837 (antibody, V domains shown)
VH: QVQLVQSGAEVKKPGASVKVSCKASGYTFTSYGISWVRQAPGQGLEWMGWISAYSGDTDYAQKLQGRVTMTTDTATSTAYMELRSLRSDDTAVYYCARDAHCSSTNCYIDLGGAPVDYWGQGTLVTVSS
VL: DIVLTQTPLSLSVTLGQPASISCRSSQSLVYIDGYTYLNWFQQRPGQSPRRLIYKVSNRDSGVPDRFSGSGSGTDFTLKISRVEAEDVGVYYCMQGAHWPWTFGQGTKVEIK
notes: also called Ab 937; Antibody Number 937
Consider B5, for which, in assay [1], the “Neutralization IC50 (RSV subtype A)” value is above 25 µg/mL. For the same molecule, in assay [2], the binding result is reported as “no binding (tested: 100 nM antigen)”. The Kd in assay [3] was 7.09 nM.

B6: ADI-41507 (antibody, V domains shown)
VH: QVTLKESGPTLVKPTQTLRLTCTFSGFSLNVISGVGVGWIRQPPGKALEWLALIYWDDDKRYSPSLKSRLTIAKDTSKNQVVLTMTNMDPVDTATYYCAHKGGSIEAAVGFDYWGQGTLVTVSS
VL: QSVLTQPPSVSGAPGQRVIISCTGSSSNIGAGFAVHWYQQLPGTAPKLLIYANTNRPSGVPDRFSGSKSGTSASLAITGLQAEDEADYYCQSYDTSLSGFYVFGTGTKLTVL
Take B6: in the assay with RSV F on RSV-A2 virus, the “Neutralization IC50 (RSV subtype A)” value was above 25 µg/mL. Further, in assay [4], the binding result is recorded as “no binding”. The Kd in assay [5] came out at 140 nM.

B7: ADI-41827 (antibody, V domains shown)
VH: EVQLSESAGGVVQPGGSLRLTCAASGFSFSTNGMHWVRQAPGKGLEWVAFIRYDGSKKYYAESVKGRFTISREDSNNTLYLQMNSLRPEDTAVYYCAKEDCSGGTCYHERNYYYYGMDVWGQGTTVTVSS
VL: QPVLTQPPSLPVSPGQTASITCSGDKLEYKYACWYQHKPGQSPVLVIYQDNKRPSGIPERFSGSNSGNTATLTISGTQPMDEADYYCQAWDSSTVVFGGGTKVTVL
With B7, in assay [1], the “Neutralization IC50 (RSV subtype A)” value is above 25 µg/mL. Moreover, the binding result in assay [2] was “no binding (tested: 100 nM antigen)”. In assay [3], the Kd was determined as 0.186 nM.

B8: ADI-41836 (antibody, V domains shown)
VH: EVQLLESGAEVKKPGASVKVSCRASGYTFTSNTLHWVRQAPGQGLEWMGWINADNGNTRYSQKFQGRVTITRDTSANTAYMELSSLISEDTAVYYCAREWSGFWSGLNWFEPWGQGTLVTVSS
VL: QSVLTQPPSVSGAPGQRVTISCTGSSSNIGSGNDVHWYQQFPGTAPKVLIYVNSIRPSGVSDRFSGSKSGTSASLAITGLRAEDEADYYCQSYDSSLNGVAFGGGTKLTVL
Take B8: the “Neutralization IC50 (RSV subtype A)” value in assay [1] was above 25 µg/mL. Besides, the binding result in assay [2] was “no binding (tested: 100 nM antigen)”. Further, the Kd in assay [3] amounted to 5.74 nM.

B9: ADI-41488 (antibody, V domains shown)
VH: EVQLVESGPGLVKPSETLSLTCTVSGGSINSDYWNWIRQTPGKGLEWIGYIFYSGNTNYNPSLKSRVTISIDTSKKKFSLQVTSVTAADTAVYYCARMGTLKFDFDNWGQGTLVTVSS
VL: QSALTQPRSVSGSPGQSVTIPCTGTSSDVGAYKYVSWYQQHPGKAPKLIIYDVTKRPSGVPNRFSGSKSGNTASLTISGLQAEDEADYYCCSYAGTHTYWVFGGGTKVTVL
notes: also called Ab 769; Antibody Number 769
Turning to B9, the “Neutralization IC50 (RSV subtype A)” value with RSV F on RSV-A2 virus is above 25 µg/mL. In assay [4], the binding result is recorded as “no binding”. The molecule further gave a Kd in assay [5] of 0.605 nM.

B10: ADI-41477 (antibody, V domains shown)
VH: QVQLVQSGAEVKKPGASVRVSCKASGYPFISYYIHWVRQAPGQGLEWMGMINTNGGSTHYAQKFQGRVTMTRDTSTTTIYMELSRLKSEDTAYYFCARDNTETVLHGFWSGYGSYLDYWGQGTLVTVSS
VL: EIVLTQSPGTLSLSPGGRATLSCRASQSVTSSYLAWYQQRPGQAPRLLIYGASSRAAGIPDRFSGSGSGTDFTLTISRLEPEDFAVYYCQQYGSAPLTFGGGTKLEIK
notes: also called Ab 760; Antibody Number 760
For the molecule B10, the “Neutralization IC50 (RSV subtype A)” value in the assay with RSV F on RSV-A2 virus is above 25 µg/mL. The binding result in assay [4] is recorded as “no binding”. Further, the Kd in assay [5] was 0.505 nM.

B11: ADI-41839 (antibody, V domains shown)
VH: EVQLLESGGGVVQPGGSLRLSCVASGFTFSAYGMHWVRQAPGKGPEWVAMTRSDGNKIYYADSVKGRFTISRDDSKNTLYLEMNSLRPDDTAVYFCAKEVGYGGNSLHYWGQGTLVTVSS
VL: SYELIQPPSVSVAPGQTAKITCGGNNIGSKSVHWYQQKPGQAPVLVVFDDSDRPSGIPERFSGSNSGNTATLTISRVEAGDEADYYCQVWDFSSDLWVFGGGTKLTVL
notes: also called Ab 939; Antibody Number 939
B11: in assay [1], the “Neutralization IC50 (RSV subtype A)” value is above 25 µg/mL. The binding result in assay [2] is recorded as “no binding (tested: 100 nM antigen)”. Also, the Kd in assay [3] was found to be 7.88 nM.

B12: ADI-41833 (antibody, V domains shown)
VH: EVQLLESGGGLVQPGGSLRLSCAASRFTFSTYAMSWVRQAPGKGLEWVSSISGSGDKTFYTDSVKGRFTISRDNSKNTLYLQMNSLRAEDTAVYYCARESYYELWTGTYPGWELDYWGQGTLVTVSS
VL: DIQLTQSPSSLSASVGDRVTITCRASQDISNYLAWYQQKPGKPPKLLIYAASILESGAPSRFSGSGSGTDFTLTISSLQPEDVGTYYCQKSNSAPRPFGQGTKVEIK
In the case of B12, in assay [1], the “Neutralization IC50 (RSV subtype A)” value amounted to 0.02 µg/mL. The binding result in assay [2] was “no binding (tested: 100 nM antigen)”. For the same molecule, in assay [3], the Kd stood at 0.723 nM.

B13: ADI-41458 (antibody, V domains shown)
VH: EVQLLESGSGLVKPSQTLSLTCAVSGDSLNSALYSWSWIRQPPGKGLEWIGYIYYSGSTYYNSSLKSRVTISIDRSKNQFSLNLNSVTAADTAVYYCASLQTGYSSGWFFDFWGPGTLVTVSS
VL: EIVLTQSPGTLSLSPGERATLSCRASQSVSRTYLTWYQQKPGQAPRLLIYGASNRATGIPDRFSGSGSGTDFTLTISRLEPEDFAVYYCQQYGSTPLFGQGTKVEIK
With B13, the “Neutralization IC50 (RSV subtype A)” value with RSV F on RSV-A2 virus was above 25 µg/mL. In assay [4], the binding result is “no binding”. In addition, the Kd in assay [5] was found to be 0.549 nM.

B14: ADI-41838 (antibody, V domains shown)
VH: EVQLLESGGGVVQPGRSLRLSCAASEFTFRSYAMHWVRQAPGMGLEWVAVTPYDGISKYYADSVKGRFTISRDNSKNTLYLQMNSLRPEDTAVYYCARGFPEPITSWPGYFYAMDVWGQGTTVTVSS
VL: QSALTQPASVSGSPGQSITISCTGTTSDVGVYNYVSWYQQHPGKAPKLMIYDVSNRPSGVSNRFSGSKSGNTASLTISGLQAEDEADYYCSSYTNSDTPVVFGGGTKLTVL
notes: also called Ab 938; Antibody Number 938
In the case of B14, the “Neutralization IC50 (RSV subtype A)” value in assay [1] was above 25 µg/mL. Moreover, in assay [2], the binding result is “no binding (tested: 100 nM antigen)”. The Kd in assay [3] was 32.1 nM.

B15: ADI-41465 (antibody, V domains shown)
VH: QVQLVQSGGGVVQPGRSLRLSCAASGFTFTSYDMHWVRQAPGKGLEWVAIISHDGSKQFYADSVKGRFTISRDNSKNTLYLQMNSLRPEDTAMYYCAKDTPSWGLLAEFFRHWGQGTLVTVSS
VL: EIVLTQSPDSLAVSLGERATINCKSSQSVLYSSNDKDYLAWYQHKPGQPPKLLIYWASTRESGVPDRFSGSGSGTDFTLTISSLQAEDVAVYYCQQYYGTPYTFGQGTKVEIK
In the case of B15, the “Neutralization IC50 (RSV subtype A)” value with RSV F on RSV-A2 virus was above 25 µg/mL. In addition, the binding result in assay [4] was “no binding”. In assay [5], this molecule displayed a Kd of 1.73 nM.

B16: ADI-41525 (antibody, V domains shown)
VH: QVQLVQSGAEMKKPGSSVKVSCKASGRTFKYFALNWMRRAPGHGLEWIGGDIPISGSTNYAQKFQGRVTITADESASTAYMEVSRLRSDDTAVYYCASLHYDVSTGFSDAFDIWGQGTMVTVSS
VL: QSVLTQPASVSGSPGQSITISCTGTSSDVGAYNYVSWYQHHPGKAPKLMIFDVSNRPSGVSNRFSGSKSGNTASLTISGLQAEDEADYYCSSYRSTFSYVFGTGTKVTVL
notes: also called Ab 797; Antibody Number 797
Consider B16, for which the “Neutralization IC50 (RSV subtype A)” value with RSV F on RSV-A2 virus is above 25 µg/mL. Also, the binding result in assay [4] is listed as “no binding”. In assay [5], this molecule displayed a Kd of 0.327 nM.
